The results in this text go back to publication PMC4077652, “An Unstable Th Epitope of P. falciparum Fosters Central Memory T Cells and Anti-CS Antibody Responses” (PLoS ONE, 2014).

Experiment [1] deals with soluble recombinant HLA-DR4 (HLA-DRβ1*04:01) (human).
Experiment [2] has the same target. Description: ELISA.
The target is the same in experiment [3]. Description: ELISA; apparent Kd; direct binding of biotin-labeled peptide to DR4 as in the DR-ELISA (72 h), binding reactions set up with 1 µM HLA-DM.
Experiment [4] has the same target. Description: dissociation kinetics (LB3.1 capture, europium-streptavidin time-resolved fluorescence).
Experiment [5] shares this target. Description: ELISA. The source holds these as a separate data set. A general note: An ELISA detects its analyte on a solid surface through an enzyme-linked reagent.

pIC50, pKd: −log10 of the molar value. “And” between values parts separate entries of the source, which are not always exact repeats. Identical values can stand only once. Like-named read-outs stand apart in the source and are kept apart here.

For biotin-labeled HA 306-318 peptide, the half-life (in general, the time needed for the level to fall by half in the phase considered) in experiment [1] was 620 h. As to QNT-5 332-345 peptide, unlabeled, the pIC50 – broadly, the negative decadic logarithm of the IC50, by convention in mol/L – in experiment [2] is 5.77. For “biotin-labeled T* 326-345 peptide (NF-54 variant)”, the pKd – broadly, the Kd on a negative log10 scale, so that one unit is a factor of ten – in experiment [2] is 6.61 and 6.91. As for “QNT-Y peptide (QNT-5 analogue L335Y), unlabeled”, the pIC50 in experiment [2] was 6.89. For biotin-labeled T*-1 327-338 peptide, the pKd in experiment [3] is 7.29. The pKd in experiment [2] is 7.37. Also, in experiment [4], the half-life was 63.9 h and the half-life with HLA-DM worked out at 4.9 h. With HA 306-318 peptide, unlabeled, the negative logarithm of the IC50 (pIC50) is 6.51 in experiment [2] and 3.76 in experiment [5].
